Experimental data as given in patent US20240270821A1, “GIP/GLP1/GCG TRI-RECEPTOR AGONISTS AND USES THEREOF” (priority 2023, published 2024).
Changes are numbered by the printed parent chain.

Legend:
Test in all cases: cell-based or functional assay
[1] = molecular target: human glucagon receptor (human) (UniProt P47871)
[2] = molecular target: T1, human GIP receptor (human) (UniProt P48546)
T1 sequence (looked up): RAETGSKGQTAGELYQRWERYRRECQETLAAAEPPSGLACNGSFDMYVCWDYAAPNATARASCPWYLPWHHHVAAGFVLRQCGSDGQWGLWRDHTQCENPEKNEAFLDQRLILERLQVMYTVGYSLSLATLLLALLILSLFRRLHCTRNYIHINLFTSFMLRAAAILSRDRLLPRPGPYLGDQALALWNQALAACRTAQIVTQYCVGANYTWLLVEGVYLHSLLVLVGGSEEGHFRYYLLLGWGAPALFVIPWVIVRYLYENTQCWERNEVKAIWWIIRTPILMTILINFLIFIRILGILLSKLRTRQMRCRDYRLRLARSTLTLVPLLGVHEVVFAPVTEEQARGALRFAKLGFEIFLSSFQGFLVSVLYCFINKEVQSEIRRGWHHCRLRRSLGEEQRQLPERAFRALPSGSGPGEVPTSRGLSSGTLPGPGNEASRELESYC

hGLP-1R = hGLP-1R (Homo sapiens, UniProt P43220)
Sequence of hGLP-1R (P43220 24-463): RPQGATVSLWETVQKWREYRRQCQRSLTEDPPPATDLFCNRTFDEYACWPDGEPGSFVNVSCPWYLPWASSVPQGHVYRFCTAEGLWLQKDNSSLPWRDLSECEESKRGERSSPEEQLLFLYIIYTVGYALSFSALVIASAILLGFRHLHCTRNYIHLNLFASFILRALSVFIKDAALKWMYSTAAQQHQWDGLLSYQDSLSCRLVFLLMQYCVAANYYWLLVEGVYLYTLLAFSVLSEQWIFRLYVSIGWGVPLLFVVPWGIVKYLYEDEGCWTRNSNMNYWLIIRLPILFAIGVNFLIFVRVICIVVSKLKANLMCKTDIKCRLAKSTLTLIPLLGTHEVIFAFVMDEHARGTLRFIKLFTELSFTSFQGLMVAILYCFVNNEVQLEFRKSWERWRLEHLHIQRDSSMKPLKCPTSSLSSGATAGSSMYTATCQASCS

Sequence of human glucagon receptor (human) (P47871 26-477): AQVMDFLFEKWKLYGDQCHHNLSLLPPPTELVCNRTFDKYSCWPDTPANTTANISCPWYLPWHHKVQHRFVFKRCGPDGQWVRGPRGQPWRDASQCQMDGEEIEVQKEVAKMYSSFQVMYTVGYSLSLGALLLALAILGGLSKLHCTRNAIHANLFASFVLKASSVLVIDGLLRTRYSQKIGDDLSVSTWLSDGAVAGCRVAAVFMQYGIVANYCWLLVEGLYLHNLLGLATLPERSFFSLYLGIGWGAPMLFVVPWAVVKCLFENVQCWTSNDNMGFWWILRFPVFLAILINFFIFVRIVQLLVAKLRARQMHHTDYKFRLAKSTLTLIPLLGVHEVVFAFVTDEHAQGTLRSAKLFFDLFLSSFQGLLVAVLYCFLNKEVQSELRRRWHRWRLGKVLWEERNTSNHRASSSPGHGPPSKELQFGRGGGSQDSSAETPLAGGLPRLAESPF

B1: Example 640 (peptide)
chain: YXQGTXTSDXSIXLDXKAQXEFIEXLIEGGPSSGAPPPSGS
modifications: non-natural residues; Lys acylated C18 diacid; C-terminal amide; synthetic construct; SITE 2: note = 2-Aminoisobutyric Acid; SITE 6: note = alpha-methyl-2-fluoro-L-phenylalanine; SITE 10: note = 3-(4-Pyridyl)-L-alanine; SITE 13: note = alpha-methyl-leucine; SITE 16: note = L-ornithine; SITE 17: note = Lysine is chemically modified through conjugation of the epsil
Relative cAMP EC50 [1]: 9.5 nM
cAMP Rel EC50 (in the presence of 1% HSA) [1]: 730 nM
Relative cAMP EC50 [2]: 0.00696 nM
cAMP Rel EC50 (in the presence of 1% HSA) [2]: 0.591 nM
Relative cAMP EC50 (hGLP-1R): 0.288 nM
cAMP Rel EC50 (in the presence of 1% HSA) (hGLP-1R): 27.8 nM

B2: Example 645 (peptide)
chain: B1 chain with I27L, A35E
modifications: non-natural residues; lipidated Lys; C-terminal amide; synthetic construct; SITE 2: note = 2-Aminoisobutyric Acid; SITE 6: note = alpha-methyl-2-fluoro-L-phenylalanine; SITE 10: note = 3-(4-Pyridyl)-L-alanine; SITE 13: note = alpha-methyl-leucine; SITE 16: note = L-ornithine; SITE 17: note = Lysine is chemically modified through conjugation of the epsil
Relative cAMP EC50 [1]: 3.25 nM
cAMP Rel EC50 (in the presence of 1% HSA) [1]: 398 nM
Relative cAMP EC50 [2]: 0.00724 nM
cAMP Rel EC50 (in the presence of 1% HSA) [2]: 0.863 nM
Relative cAMP EC50 (hGLP-1R): 0.596 nM
cAMP Rel EC50 (in the presence of 1% HSA) (hGLP-1R): 76.3 nM

B3: Example 642 (peptide)
chain: B1 chain with I27A
modifications: non-natural residues; acylated Lys; C-terminal amide; synthetic construct; SITE 2: note = 2-Aminoisobutyric Acid; SITE 6: note = alpha-methyl-2-fluoro-L-phenylalanine; SITE 10: note = 3-(4-Pyridyl)-L-alanine; SITE 13: note = alpha-methyl-leucine; SITE 16: note = L-ornithine; SITE 17: note = Lysine is chemically modified through conjugation of the epsil
Relative cAMP EC50 [1]: 3.49 nM
cAMP Rel EC50 (in the presence of 1% HSA) [1]: 519 nM
Relative cAMP EC50 [2]: 0.00796 nM
cAMP Rel EC50 (in the presence of 1% HSA) [2]: 0.791 nM
Relative cAMP EC50 (hGLP-1R): 0.474 nM
cAMP Rel EC50 (in the presence of 1% HSA) (hGLP-1R): 67.1 nM

B4: Example 644 (peptide)
chain: B1 chain with A35E
modifications: non-natural residues; lipidated Lys AEEA-γGlu-C18 diacid; C-term amide; synthetic construct; SITE 2: note = 2-Aminoisobutyric Acid; SITE 6: note = alpha-methyl-2-fluoro-L-phenylalanine; SITE 10: note = 3-(4-Pyridyl)-L-alanine; SITE 13: note = alpha-methyl-leucine; SITE 16: note = L-ornithine; SITE 17: note = Lysine is chemically modified through conjugation of the epsil
Relative cAMP EC50 [1]: 5.91 nM
cAMP Rel EC50 (in the presence of 1% HSA) [1]: 626 nM
Relative cAMP EC50 [2]: 0.00649 nM
cAMP Rel EC50 (in the presence of 1% HSA) [2]: 0.601 nM
Relative cAMP EC50 (hGLP-1R): 0.309 nM
cAMP Rel EC50 (in the presence of 1% HSA) (hGLP-1R): 34.3 nM

B5: Example 643 (peptide)
chain: B1 chain with I27Q
modifications: non-natural residues, acylated Lys (AEEA-γGlu-C18 diacid), C-terminal amide; synthetic construct; SITE 2: note = 2-Aminoisobutyric Acid; SITE 6: note = alpha-methyl-2-fluoro-L-phenylalanine; SITE 10: note = 3-(4-Pyridyl)-L-alanine; SITE 13: note = alpha-methyl-leucine; SITE 16: note = L-ornithine; SITE 17: note = Lysine is chemically modified through conjugation of the epsil
Relative cAMP EC50 [1]: 16 nM
cAMP Rel EC50 (in the presence of 1% HSA) [1]: 1170 nM
Relative cAMP EC50 [2]: 0.0223 nM
cAMP Rel EC50 (in the presence of 1% HSA) [2]: 1.61 nM
Relative cAMP EC50 (hGLP-1R): 0.741 nM
cAMP Rel EC50 (in the presence of 1% HSA) (hGLP-1R): 60.1 nM

B6: Example 646 (peptide)
chain: B1 chain with I27A
modifications: Aib, αMeF(2F), 4Pal, Orn, Me4Pal, αMeY; K (γGlu)2-C18 diacid; amide; synthetic construct; SITE 2: note = 2-Aminoisobutyric Acid; SITE 6: note = alpha-methyl-2-fluoro-L-phenylalanine; SITE 10: note = 3-(4-Pyridyl)-L-alanine; SITE 13: note = alpha-methyl-leucine; SITE 16: note = L-ornithine; SITE 17: note = Lysine is chemically modified through conjugation of the epsil
Relative cAMP EC50 [1]: 23.1 nM
cAMP Rel EC50 (in the presence of 1% HSA) [1]: 1260 nM
Relative cAMP EC50 [2]: 0.0336 nM
cAMP Rel EC50 (in the presence of 1% HSA) [2]: 1.09 nM
Relative cAMP EC50 (hGLP-1R): 2.58 nM
cAMP Rel EC50 (in the presence of 1% HSA) (hGLP-1R): 90.5 nM

B7: Example 641 (peptide)
chain: B1 chain with I27L
modifications: Lys acylated AEEA-γGlu-C18 diacid; non-natural residues; C-terminal amide; synthetic construct; SITE 2: note = 2-Aminoisobutyric Acid; SITE 6: note = alpha-methyl-2-fluoro-L-phenylalanine; SITE 10: note = 3-(4-Pyridyl)-L-alanine; SITE 13: note = alpha-methyl-leucine; SITE 16: note = L-ornithine; SITE 17: note = Lysine is chemically modified through conjugation of the epsil
Relative cAMP EC50 [1]: 3.72 nM
cAMP Rel EC50 (in the presence of 1% HSA) [1]: 451 nM
Relative cAMP EC50 [2]: 0.00819 nM
cAMP Rel EC50 (in the presence of 1% HSA) [2]: 0.832 nM
Relative cAMP EC50 (hGLP-1R): 0.489 nM
cAMP Rel EC50 (in the presence of 1% HSA) (hGLP-1R): 68.3 nM

B8: Example 660 (peptide)
chain: YXQGTXTSDXSILLDKKAQXAFIEYLEEGGPSSGAPPPEGTGE
modifications: synthetic construct; SITE 2: note = 2-Aminoisobutyric Acid; SITE 6: note = alpha-methyl-2-fluoro-L-phenylalanine; SITE 10: note = 3-(4-Pyridyl)-L-alanine; SITE 17: note = Lysine is chemically modified through conjugation of the epsilon-amino group of the Lysine side chain with (gamma-Glu)2-CO-(CH2)1
cAMP Rel EC50 (1% HSA) [1]: 455 nM
cAMP Rel EC50 (1% HSA) [2]: 4.64 nM
cAMP Rel EC50 (1% HSA) (hGLP-1R): 76.9 nM

B9: Example 668 (peptide)
chain: B8 chain with Y25X, E39S, T41G
modifications: synthetic construct; SITE 2: note = 2-Aminoisobutyric Acid; SITE 6: note = alpha-methyl-2-fluoro-L-phenylalanine; SITE 10: note = 3-(4-Pyridyl)-L-alanine; SITE 17: note = Lysine is chemically modified through conjugation of the epsilon-amino group of the Lysine side chain with (gamma-Glu)2-CO-(CH2)1
cAMP Rel EC50 (1% HSA) [1]: 203 nM
cAMP Rel EC50 (1% HSA) [2]: 1.69 nM
cAMP Rel EC50 (1% HSA) (hGLP-1R): 27.1 nM

B10: Example 667 (peptide)
chain: B8 chain with Y25X, E39S, T41E
modifications: synthetic construct; SITE 2: note = 2-Aminoisobutyric Acid; SITE 6: note = alpha-methyl-2-fluoro-L-phenylalanine; SITE 10: note = 3-(4-Pyridyl)-L-alanine; SITE 17: note = Lysine is chemically modified through conjugation of the epsilon-amino group of the Lysine side chain with (gamma-Glu)2-CO-(CH2)1
cAMP Rel EC50 (1% HSA) [1]: 215 nM
cAMP Rel EC50 (1% HSA) [2]: 1.46 nM
cAMP Rel EC50 (1% HSA) (hGLP-1R): 33 nM

B11: Example 666 (peptide)
chain: B8 chain with Y25X, E39S, T41S
modifications: synthetic construct; SITE 2: note = 2-Aminoisobutyric Acid; SITE 6: note = alpha-methyl-2-fluoro-L-phenylalanine; SITE 10: note = 3-(4-Pyridyl)-L-alanine; SITE 17: note = Lysine is chemically modified through conjugation of the epsilon-amino group of the Lysine side chain with (gamma-Glu)2-CO-(CH2)1
cAMP Rel EC50 (1% HSA) [1]: 224 nM
cAMP Rel EC50 (1% HSA) [2]: 1.39 nM
cAMP Rel EC50 (1% HSA) (hGLP-1R): 32.3 nM

B12: Example 664 (peptide)
chain: B8 chain with Y25X, E39S
modifications: synthetic construct; SITE 2: note = 2-Aminoisobutyric Acid; SITE 6: note = alpha-methyl-2-fluoro-L-phenylalanine; SITE 10: note = 3-(4-Pyridyl)-L-alanine; SITE 17: note = Lysine is chemically modified through conjugation of the epsilon-amino group of the Lysine side chain with (gamma-Glu)2-CO-(CH2)1
cAMP Rel EC50 (1% HSA) [1]: 179 nM
cAMP Rel EC50 (1% HSA) [2]: 1.18 nM
cAMP Rel EC50 (1% HSA) (hGLP-1R): 27.7 nM

B13: Example 665 (peptide)
chain: B8 chain with K16X, Y25X, E39S
modifications: synthetic construct; SITE 2: note = 2-Aminoisobutyric Acid; SITE 6: note = alpha-methyl-2-fluoro-L-phenylalanine; SITE 10: note = 3-(4-Pyridyl)-L-alanine; SITE 16: note = L-ornithine; SITE 17: note = Lysine is chemically modified through conjugation of the epsilon-amino group of the Lysine side chai
cAMP Rel EC50 (1% HSA) [1]: 285 nM
cAMP Rel EC50 (1% HSA) [2]: 2.1 nM
cAMP Rel EC50 (1% HSA) (hGLP-1R): 32.8 nM
